Laboratory results published in patent US20140377805A1 (published 2014).

Biological target: T1, recombinant human IL-1α (human, UniProt P01583 113-271)
T1 sequence (looked up): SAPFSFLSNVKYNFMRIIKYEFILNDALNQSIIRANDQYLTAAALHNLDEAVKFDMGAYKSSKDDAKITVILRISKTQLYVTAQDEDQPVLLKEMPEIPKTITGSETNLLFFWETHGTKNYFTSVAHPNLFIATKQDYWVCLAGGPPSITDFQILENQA
Assay: cell-based or functional assay

B1: hIL-1a/bDVD1-Ig (bispecific antibody, human IgG1, kappa)
heavy: not shown
light: NIVLTQSPASLAVSLGQRATISCRASESVDSYGNSYMHWYQQKPGQPPKLLIYLASNLESGVPARFSGSGSRTDFTLTIDPVEADDAATYYCQQNNEDPFTFGSGTKLEIKRNIQMTQTTSSLSASLGDRVTISCRASQDISNCLNWYQQKPDGTVKLLIYYTSRLHSGVPSRFSGSGSGTDYSLTISNLEQEDIATYFCQQGKTLPYAFGGGTKLEINRTVAAPSVFIFPPSDEQLKSGTASVVCLLNNFYPREAKVQWKVDNALQSGNSQESVTEQDSKDSTYSLSSTLTLSKADYEKHKVYACEVTHQGLSSPVTKSFNRGEC
  neutralizing activity in the MRC-5 bioassay, fold less than the chimeric Abs: 3 fold
